The text below walks through data of the supplement of paper PMC7125110.

The labels stand for the following.
B1: glmS ribozyme (parent)
chain: AUAAAAGCGCCAGAACUACAGAAAUGUAGUUGACGAGGAGGAGGUUUAUCGAAUUUUCGGCGGAUGCCUCCAAA

± gives the standard error. Variants at the floor of the assay were thinned out. Bounds are passed on as bounds.

One data set covers variants of B1. Briefly: self-cleavage kobs at 640 uM GlcN6P; higher = faster cleavage; RNA array. As to conditions: with glucosamine-6-phosphate. The method, boiled down: (§1)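 Using a hybridised Cy3 probe at 37 °C, barcoded ribozyme variants transcribed in situ by E. coli RNA polymerase on sequenced MiSeq chips were monitored across tiles imaged over ~14 h. The flow contained glucosamine-6-phosphate from 40 μM to 10 mM in HEPES/KCl/Mg(OAc)2 buffer. Signals were normalised to baseline and to non-cleaving reference variants before per-tile medians were fit to one- or two-exponential decays to yield kobs. Weighted Michaelis–Menten fits across concentrations gave kcat and KM.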
As to C10G C11G A33U C68G, the “self-cleavage kobs at 640 uM GlcN6P” value amounted to 4.85e-05 ± 2.2e-05 s⁻¹.

As for C10A C61G A64G C68G, the “self-cleavage kobs at 640 uM GlcN6P” value amounted to 9.09e-05 ± 4.3e-05 s⁻¹. The same measure, in the same setting: the same measure for G38U A52C A53C C68A C71U: 0.000617 ± 0.00024 s⁻¹; for G44U U47C A48C U69G: under 1e-05 s⁻¹. As to A12U A42G C70G, the “self-cleavage kobs at 640 uM GlcN6P” value turned out to be 0.000705 ± 0.00032 s⁻¹. As to C8A A36U U45C U57A, the “self-cleavage kobs at 640 uM GlcN6P” value was under 1e-05 s⁻¹. On to C8G A15G G40U, for which the “self-cleavage kobs at 640 uM GlcN6P” value was under 1e-05 s⁻¹. For the variant C10U A52C G66A, the “self-cleavage kobs at 640 uM GlcN6P” value is under 1e-05 s⁻¹. The same measure, in the same setting: the same measure for A39U U46A: 0.000305 ± 7.5e-05 s⁻¹; for G13A A15U G35U G40C: under 1e-05 s⁻¹.

On to C34U A36G G44A C58A C68U, for which the “self-cleavage kobs at 640 uM GlcN6P” value was under 1e-05 s⁻¹. Take G44U U46A A53U C70G: the “self-cleavage kobs at 640 uM GlcN6P” value was under 1e-05 s⁻¹. With C16U G51A G63A G66A, the “self-cleavage kobs at 640 uM GlcN6P” value is under 1e-05 s⁻¹. For G13C G43C A48U, the “self-cleavage kobs at 640 uM GlcN6P” value was under 1e-05 s⁻¹. A12C U54G C68G: the “self-cleavage kobs at 640 uM GlcN6P” value amounted to 4.37e-05 ± 1.2e-05 s⁻¹. Regarding A6U G41A G44C C67G C70G, the “self-cleavage kobs at 640 uM GlcN6P” value is under 1e-05 s⁻¹. On the same count and under the same terms, the same measure for G62C A64U G66U: under 1e-05 s⁻¹. As to A33G G60C C68G, the “self-cleavage kobs at 640 uM GlcN6P” value was under 1e-05 s⁻¹. Regarding A39C G60U G66U, the “self-cleavage kobs at 640 uM GlcN6P” value is under 1e-05 s⁻¹. Turning to C11A U30C A53C C71U, the “self-cleavage kobs at 640 uM GlcN6P” value was under 1e-05 s⁻¹. On to A36U U46C U49A C68G, for which the “self-cleavage kobs at 640 uM GlcN6P” value is under 1e-05 s⁻¹.

On to C8G A33C U55G G62U C67A, for which the “self-cleavage kobs at 640 uM GlcN6P” value is under 1e-05 s⁻¹.

With C8U G35A G60C U65G, the “self-cleavage kobs at 640 uM GlcN6P” value is under 1e-05 s⁻¹. With U47G G51A A52G U65G, the “self-cleavage kobs at 640 uM GlcN6P” value is under 1e-05 s⁻¹. Turning to G21U G26U U65G G66U U69G, the “self-cleavage kobs at 640 uM GlcN6P” value was found to be 0.000207 ± 8.9e-05 s⁻¹. In the case of U31G G60U U65A, the “self-cleavage kobs at 640 uM GlcN6P” value is under 1e-05 s⁻¹. As for U46G A53C C67U, the “self-cleavage kobs at 640 uM GlcN6P” value came out at 7.34e-05 ± 2.7e-05 s⁻¹. For G9U A42U A48C C50G G63C C67U, the “self-cleavage kobs at 640 uM GlcN6P” value was under 1e-05 s⁻¹. For the variant G29C U55G, the “self-cleavage kobs at 640 uM GlcN6P” value is 0.000107 ± 1.3e-05 s⁻¹.

Take A12G A14U A42U U54A C70G: the “self-cleavage kobs at 640 uM GlcN6P” value is under 1e-05 s⁻¹. On the same count and under the same terms, the same measure for C58G A64C C67U: 7.21e-05 ± 2e-05 s⁻¹. Take G13U G43C A64G: the “self-cleavage kobs at 640 uM GlcN6P” value was under 1e-05 s⁻¹. Regarding A52C U57C C68G C70G, the “self-cleavage kobs at 640 uM GlcN6P” value turned out to be 0.000165 ± 5.4e-05 s⁻¹. For the variant C11A G37C G62A, the “self-cleavage kobs at 640 uM GlcN6P” value is under 1e-05 s⁻¹. On to C8U A36C A48G U49C, for which the “self-cleavage kobs at 640 uM GlcN6P” value is under 1e-05 s⁻¹.

Consider C8A U54C A64C, for which the “self-cleavage kobs at 640 uM GlcN6P” value was under 1e-05 s⁻¹. The same measure, in the same setting: in the case of C8A C16A A39U G59U it was under 1e-05 s⁻¹; in that of G13C A15C A52U G66C, under 1e-05 s⁻¹. Still for that read-out and setting: in the case of G41A G51C G63A C67A it was under 1e-05 s⁻¹; in that of G13U C50A A64U U65G, under 1e-05 s⁻¹; in that of G9C U65A C68G, 0.000522 ± 0.00017 s⁻¹. As to C8A G32U U45G A48G C71A, the “self-cleavage kobs at 640 uM GlcN6P” value is under 1e-05 s⁻¹. Consider U30A G41U G43U U54C, for which the “self-cleavage kobs at 640 uM GlcN6P” value was under 1e-05 s⁻¹.

Consider U46A C50U U55C, for which the “self-cleavage kobs at 640 uM GlcN6P” value was under 1e-05 s⁻¹. Regarding C8G A14C G63A, the “self-cleavage kobs at 640 uM GlcN6P” value is under 1e-05 s⁻¹. Consider A6C C10U C11A U56C, for which the “self-cleavage kobs at 640 uM GlcN6P” value is under 1e-05 s⁻¹. Turning to G7A A15U U56G C58A, the “self-cleavage kobs at 640 uM GlcN6P” value was under 1e-05 s⁻¹. With A42C A64U U69G, the “self-cleavage kobs at 640 uM GlcN6P” value was 4.76e-05 ± 1.2e-05 s⁻¹.

Regarding A14U A15C A33C C61G U65G, the “self-cleavage kobs at 640 uM GlcN6P” value is under 1e-05 s⁻¹.

With A39C A42G G60C, the “self-cleavage kobs at 640 uM GlcN6P” value is under 1e-05 s⁻¹.

With A6U U55G A64C, the “self-cleavage kobs at 640 uM GlcN6P” value was under 1e-05 s⁻¹. Same read-out and setting: the same measure for G13U G41U A52C: under 1e-05 s⁻¹. On the same count and under the same terms, the same measure for C10U G35U: under 1e-05 s⁻¹.

The next data set covers variants of B1. Briefly: self-cleavage kobs at 2500 uM GlcN6P; higher = faster cleavage; RNA array. As to conditions: with glucosamine-6-phosphate. In short, it runs like this: as §1
Consider C10G C11G A33U C68G, for which the “self-cleavage kobs at 2500 uM GlcN6P” value stood at 9.09e-05 ± 3.3e-05 s⁻¹. Consider G13U G40A A53G, for which the “self-cleavage kobs at 2500 uM GlcN6P” value was 0.000153 ± 3.6e-05 s⁻¹. On to C11U G29A G38U U47C, for which the “self-cleavage kobs at 2500 uM GlcN6P” value was under 1e-05 s⁻¹. Regarding G44U U47C A48C U69G, the “self-cleavage kobs at 2500 uM GlcN6P” value was under 1e-05 s⁻¹. With A12U A42G C70G, the “self-cleavage kobs at 2500 uM GlcN6P” value was found to be 0.00109 ± 0.00041 s⁻¹. The same measure, in the same setting: in the case of C10U A52C G66A it was under 1e-05 s⁻¹.

With A14G U31C G40U U55A, the “self-cleavage kobs at 2500 uM GlcN6P” value amounted to 0.0012 ± 0.00032 s⁻¹. Turning to A39U U46A, the “self-cleavage kobs at 2500 uM GlcN6P” value was 0.000711 ± 0.00023 s⁻¹. Still for that read-out and setting: the same measure for C34U A36G G44A C58A C68U: under 1e-05 s⁻¹. Turning to A33C G40U G62A C70G, the “self-cleavage kobs at 2500 uM GlcN6P” value was under 1e-05 s⁻¹. Consider G13C G43C A48U, for which the “self-cleavage kobs at 2500 uM GlcN6P” value is under 1e-05 s⁻¹. The same measure, in the same setting: the same measure for U56C C67A C71G: under 1e-05 s⁻¹; for G32A G44U U49A G63A: under 1e-05 s⁻¹. On the same count and under the same terms, the same measure for A12C U54G C68G: 5.51e-05 ± 1.5e-05 s⁻¹; for A6U G41A G44C C67G C70G: under 1e-05 s⁻¹; for G29C G43U G62C: under 1e-05 s⁻¹. Regarding A6C U31C G41C A42G U45G G59C G66U, the “self-cleavage kobs at 2500 uM GlcN6P” value was under 1e-05 s⁻¹. As for G62C A64U G66U, the “self-cleavage kobs at 2500 uM GlcN6P” value is under 1e-05 s⁻¹. Same read-out and setting: in the case of A12C U49G G62U it was under 1e-05 s⁻¹; in that of A39C G60U G66U, under 1e-05 s⁻¹; in that of G9A G37C G38C, under 1e-05 s⁻¹. With U30G G43U U45A C68U, the “self-cleavage kobs at 2500 uM GlcN6P” value came out at 0.000375 ± 9.4e-05 s⁻¹. With C8G A33C U55G G62U C67A, the “self-cleavage kobs at 2500 uM GlcN6P” value was under 1e-05 s⁻¹. Consider G9U C10U C67U, for which the “self-cleavage kobs at 2500 uM GlcN6P” value was under 1e-05 s⁻¹.

For C8A G41A U65C, the “self-cleavage kobs at 2500 uM GlcN6P” value was under 1e-05 s⁻¹. On the same count and under the same terms, in the case of U47G G51A A52G U65G it was under 1e-05 s⁻¹. The same measure, in the same setting: the same measure for C16G G29U C34G: under 1e-05 s⁻¹; for U46G A53C C67U: 0.000252 ± 8.5e-05 s⁻¹; for G29C U55G: 0.000164 ± 2.5e-05 s⁻¹.

Turning to U31C G32C A39G, the “self-cleavage kobs at 2500 uM GlcN6P” value was found to be 0.000381 ± 0.00015 s⁻¹. A6G G41U U46G G60C: the “self-cleavage kobs at 2500 uM GlcN6P” value was under 1e-05 s⁻¹. Turning to G32U U56G C71A, the “self-cleavage kobs at 2500 uM GlcN6P” value turned out to be 9.14e-05 ± 2e-05 s⁻¹. The same measure, in the same setting: the same measure for A52C U57C C68G C70G: 0.000133 ± 5.6e-05 s⁻¹.

For C8U A36C A48G U49C, the “self-cleavage kobs at 2500 uM GlcN6P” value was under 1e-05 s⁻¹. Regarding C8A U54C A64C, the “self-cleavage kobs at 2500 uM GlcN6P” value is under 1e-05 s⁻¹. Turning to G13U C50A A64U U65G, the “self-cleavage kobs at 2500 uM GlcN6P” value is under 1e-05 s⁻¹.

On to C8G A14C G63A, for which the “self-cleavage kobs at 2500 uM GlcN6P” value was under 1e-05 s⁻¹.

Regarding A6C C10U C11A U56C, the “self-cleavage kobs at 2500 uM GlcN6P” value was under 1e-05 s⁻¹. Same read-out and setting: in the case of A42C A64U U69G it was 9.13e-05 ± 1.9e-05 s⁻¹. In the case of G9A A33C A39C U57A, the “self-cleavage kobs at 2500 uM GlcN6P” value is under 1e-05 s⁻¹. As for A14U A15C A33C C61G U65G, the “self-cleavage kobs at 2500 uM GlcN6P” value is under 1e-05 s⁻¹. In the case of A39C A42G G60C, the “self-cleavage kobs at 2500 uM GlcN6P” value is under 1e-05 s⁻¹. In the case of C10U G35U, the “self-cleavage kobs at 2500 uM GlcN6P” value is under 1e-05 s⁻¹.

The variants in the next data set derive from B1. Briefly: self-cleavage kobs at 10000 uM GlcN6P; higher = faster cleavage; RNA array. As to conditions: with glucosamine-6-phosphate. In short, it runs like this:
as §1
For A39U U46A, the “self-cleavage kobs at 10000 uM GlcN6P” value is 0.00219 ± 0.00035 s⁻¹.

On to A6C U31C G41C A42G U45G G59C G66U, for which the “self-cleavage kobs at 10000 uM GlcN6P” value is under 1e-05 s⁻¹.

With G29C U55G, the “self-cleavage kobs at 10000 uM GlcN6P” value came to 0.000757 ± 9.6e-05 s⁻¹. The same measure, in the same setting: the same measure for G9C U65A C68G: 6.3e-05 ± 2.2e-05 s⁻¹; for C10U G35U: under 1e-05 s⁻¹.
